Assay results published in patent publication US20090246248A1, “COATING COMPOSITIONS HAVING IMPROVED PERFORMANCE” (priority 2008, published 2009).
Numbered stars: 1 amine (or outer) side, 2 acyl side, 3 side chain; on linkers, the order of the positions; unused ones are H or OH. Square brackets hold non-standard residues; d marks the D form. Ends that are not written are not given here. * marks the point of attachment. (AUD)6 = six aminoundecanoic acid units between the two peptides, O=C(CCCCCCCCCCNC(=O)CCCCCCCCCCNC(=O)CCCCCCCCCCN[*:1])NCCCCCCCCCCC(=O)NCCCCCCCCCCC(=O)NCCCCCCCCCCC(=O)[*:2]; Biotin = O=C1N[C@H]2[C@H](CS[C@H]2CCCCC(=O)*)N1; P10 = 10 unit polyethylene glycol polymer; Myristoyl = CCCCCCCCCCCCCC(=O)*; Lauroyl = CCCCCCCCCCCC(=O)*; linker = not defined here; (MP)2 = not defined here

B1: SEQ ID NO 150 (peptide)
peptide: SWWGFWNGSAAPVWSRGSSG[code s][code s]GGVGGWALFETLRGKEV[code s][code r]GSSGK(Biotin)-NH2
modifications: not fully specified; printed as SWWGFWNGSAAPVWSR-GSSG-ssGGVGGWALFETLRGKEVsr-GSSGK-B-NH2
B2: SEQ ID NO 153 (peptide)
peptide: [code s][code s]GGVGGWALFETLRGKEV[code s][code r][P10]SWWGFWNGSAAPVWSRGSSGK(Biotin)-NH2
modifications: not fully specified; printed as ssGGVGGWALFETLRGKEVsr-P10-SWWGFWNGSAAPVWSR-GSSGK-B-NH2
B3: SEQ ID NO 149 (peptide)
peptide: [code s][code s]GGVGGWALFETLRGKEV[code s][code r][P10]YFRAFRKFVKPFKRAFKGSSGK(Biotin)-NH2
modifications: not fully specified; printed as ssGGVGGWALFETLRGKEVsr-P10-YFRAFRKFVKPFKRAFK-GSSGK-B-NH2
B4: SEQ ID NO 147 (peptide)
peptide: YFRAFRKFVKPFKRAFK[(MP)2][code s][code s]GGVGGWALFETLRGKEV[code s][code r]GSSGK(Biotin)-NH2
modifications: not fully specified; printed as YFRAFRKFVKPFKRAFK-(MP)2-ssGGVGGWALFETLRGKEVsr-GSSGK-B-NH2; reading uncertain

biological target: T1, GDF-7 (R&D SYSTEMS); test: GDF-7 capture on peptide-coated sutures; anti-GDF-7 antibody/AP, pNPP read-out; relative EC50; lower limit told of the whole group; details: not given
T1 sequence (Q7Z4P5 322-450, species assumed, looked up): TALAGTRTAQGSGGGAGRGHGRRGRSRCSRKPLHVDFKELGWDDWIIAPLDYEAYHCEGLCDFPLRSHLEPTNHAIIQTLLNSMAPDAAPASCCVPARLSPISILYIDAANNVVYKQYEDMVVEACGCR

| Molecule | EC50 [nM] |
| --- | --- |
| [code s][code s]GGVGGWALFETLRGKEV[code s][code r][(MP)2]SWWGFWNGSAAPVWSRGSSGK(Biotin)-NH2 (not fully specified; reading uncertain) [SEQ ID NO 152] | > 20 |
| B1 | > 20 |
| [code s][code s]GGVGGWALFETLRGKEV[code s][code r]GSSGYFRAFRKFVKPFKRAFKGSSGK(Biotin)-NH2 (not fully specified) [SEQ ID NO 155] | > 20 |
| B2 | > 20 |
| B3 | > 20 |
| B4 | > 20 |
| [code s][code s]GGVGGWALFETLRGKEV[code s][code r][(AUD)6]SWWGFWNGSAAPVWSRGSSGK(Biotin)-NH2 (not fully specified) [SEQ ID NO 154] | > 20 |
| [code s][code s]GGVGGWALFETLRGKEV[code s][code r][(MP)2]YFRAFRKFVKPFKRAFKGSSGK(Biotin)-NH2 (not fully specified; reading uncertain) [SEQ ID NO 148] | > 20 |

test system: not listed separately; test: Critical micelle concentration (methyl orange assay); type: physicochemical; details: pH 7 PBS, A484
Description: Formation of a composition of the invention, and evidence of macromolecular network formation, may be monitored or quantified by any means known in the art. In this example, macromolecular formation was detected using a standard assay for determining critical micelle concentration (“CMC”). In this assay, a solution containing the composition of the invention (in a range of concentrations in pH 7 phosphate buffered saline (“PBS”)) was mixed with a solution of methyl orange (0.04 mM in PBS), and the absorbance of the mixture was measured at 484 nm (A484). CMC is the concentration at which a sharp decrease in absorbance at A484 is observed, a change in the optical properties of methyl orange when trapped in a hydrophobic phase, such as caused by self-association as a macromolecular network (Table 7, “CMC”). Also included in this assay were an assay control peptide having an amino acid sequence of SEQ ID NO:122 (Table 7, “Control”), and compound 119 (a PEGylated peptide, the peptide having an amino acid sequence of SEQ ID NO:122, as described in more detail in Example 6 herein).

| Molecule | CMC |
| --- | --- |
| LAU-SEQ ID NO: 122 (Lauroyl-SSHRTNHKKNNPKKKNKTRGSSGK) [Compound 126] | 0.37 µM |
| MYR-SEQ ID NO: 122 (Myristoyl-SSHRTNHKKNNPKKKNKTRGSSGK) [Compound 125] | 0.123 µM |
| MYR-linker-SEQ ID NO: 122 ({Myristoyl-linker}-SSHRTNHKKNNPKKKNKTRGSSGK; reading uncertain) [Compound 127] | 0.123 µM |
| PALM-PALM-PALM-linker-SEQ ID NO: 122 (SSHRTNHKKNNPKKKNKTRGSSGK; also: three palmitoyl groups, place not given here, linker, place and nature not given here) [Compound 129] | 0.123 µM |
| SSHRTNHKKNNPKKKNKTRGSSGK [SEQ ID NO:122, assay control peptide] | >>10 μM |
| [MYR]2-K-linker-SEQ ID NO: 122 (SSHRTNHKKNNPKKKNKTRGSSGK; also: lysine bearing two myristoyl groups, place not given here, linker, place and nature not given here) [Compound 128] | 0.123 µM |
